Key:
Test in all cases: SPR
[1] = molecular target: VH1 M60A mutant (His-MBP-VH1 fusion) (vaccinia virus Copenhagen strain, UniProt P20495 1-171, M60A)
[2] = molecular target: VH1 T59A mutant (His-MBP-VH1 fusion) (vaccinia virus Copenhagen strain, UniProt P20495 1-171, T59A)
[3] = molecular target: VH1 K22A mutant (His-MBP-VH1 fusion) (vaccinia virus Copenhagen strain, UniProt P20495 1-171, K22A)
[4] = molecular target: VH1 C110S mutant (His-MBP-VH1 fusion) (vaccinia virus Copenhagen strain, UniProt P20495 1-171, C110S)
[5] = molecular target: VH1 K20A mutant (His-MBP-VH1 fusion) (vaccinia virus Copenhagen strain, UniProt P20495 1-171, K20A)
[6] = molecular target: VH1 T25A mutant (His-MBP-VH1 fusion) (vaccinia virus Copenhagen strain, UniProt P20495 1-171, T25A)

Measured: binding result

VDADEYLIPQQ [EGFR pTyr peptide 986-VDADEpYLIPQQ-998 (11-mer)]
binds: all assays above
